Legend:
[1] = target: taxol-stabilized microtubules (MTs); experiment: 100 mM KCl
[2] = target: taxol-stabilized microtubules (MTs); experiment: 30 mM KCl
[3] = target: taxol-stabilized microtubules (MTs); experiment: 200 mM KCl

taxol-stabilized microtubules (MTs), sequence (chain, as listed by the source, chain 1 of 2): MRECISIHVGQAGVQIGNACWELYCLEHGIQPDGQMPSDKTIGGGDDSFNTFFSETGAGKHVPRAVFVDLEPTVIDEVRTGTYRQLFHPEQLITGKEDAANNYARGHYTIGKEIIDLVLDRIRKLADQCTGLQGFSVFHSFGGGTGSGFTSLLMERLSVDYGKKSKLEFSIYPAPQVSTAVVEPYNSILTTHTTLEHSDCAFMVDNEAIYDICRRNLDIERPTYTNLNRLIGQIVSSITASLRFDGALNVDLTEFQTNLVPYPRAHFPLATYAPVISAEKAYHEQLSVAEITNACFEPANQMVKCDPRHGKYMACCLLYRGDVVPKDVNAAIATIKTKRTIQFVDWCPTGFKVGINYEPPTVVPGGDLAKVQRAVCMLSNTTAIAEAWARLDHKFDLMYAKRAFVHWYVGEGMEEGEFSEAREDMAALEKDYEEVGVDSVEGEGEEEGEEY
taxol-stabilized microtubules (MTs), sequence (chain, as listed by the source, chain 2 of 2): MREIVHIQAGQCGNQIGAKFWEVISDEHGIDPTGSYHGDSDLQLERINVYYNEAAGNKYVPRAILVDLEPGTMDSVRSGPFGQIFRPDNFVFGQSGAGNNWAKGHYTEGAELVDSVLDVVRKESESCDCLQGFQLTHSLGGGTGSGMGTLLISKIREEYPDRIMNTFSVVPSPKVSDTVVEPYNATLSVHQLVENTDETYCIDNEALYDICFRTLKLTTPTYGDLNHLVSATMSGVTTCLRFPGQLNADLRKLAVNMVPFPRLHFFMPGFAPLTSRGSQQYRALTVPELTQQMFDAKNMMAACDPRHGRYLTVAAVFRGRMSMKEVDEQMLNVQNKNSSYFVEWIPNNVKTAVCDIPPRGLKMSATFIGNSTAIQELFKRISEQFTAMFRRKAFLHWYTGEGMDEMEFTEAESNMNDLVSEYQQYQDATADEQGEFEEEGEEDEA

B1: MBP-Kif18A^tail-His6 (tail of Xl_Kif18A, aa 846-953) (domain or fragment)
chain: PSYMAMTSAAERKRKLLSLAGNSAVKEDSVPLPTAKRVRQDIALDCKALRVQRVAAGTTRSKDNCARRRLPKSVSEGALGVKTKPFSFQGSAQLLFQGGKKKAALKDP
Kd [1]: 770 nM
Kd [2]: 340 nM
Kd [3]: 3010 nM

Source: PMC5399559 (2017)
